Measurements taken from patent US20260265379A1 (IMCHECK THERAPEUTICS, published 2026).

B1: bsAb052 (bispecific antibody)
heavy (part 1 of 2): QVQLVQSGAEVKKPGASVKLSCKASGYIFTRYYMYWVKQRPGQGLEWIGEINPNNGGTKFNEKFKNRATLTVDKSISTAYMELSRLRSDDTAVYYCSREDDYDGTPFAMDYWGQGTLVTVSS
heavy (part 2 of 2): GGGGSGGGGSGGGGSGGGGSQVQLVQSGVEVKKPGASVKVSCKASGYTFTNYYMYWVRQAPGQGLEWMGGINPSNGGTNFNEKFKNRVTLTTDSSTTTAYMELKSLQFDDTAVYYCARRDYRFDMGFDYWGQGTTVTVSSGGGGSGGGGSGGGGSGGGGSEIVLTQSPATLSLSPGERATLSCRASKGVSTSGYSYLHWYQQKPGQAPRLLIYLASYLESGVPARFSGSGSGTDFTLTISSLEPEDFAVYYCQHSRDLPLTFGGGTKVEIK
heavy: B1 heavy (part 2 of 2)
light: not shown
notes: one Fab arm anti-BTN3A, two scFv anti-PD-1; not shown: IgG1 CH1-hinge-CH2-CH3; CH2-CH3 (Fc)
B2: bsAb056 (bispecific antibody)
heavy 1: B1 heavy (part 2 of 2)
heavy 2: B1 heavy (part 1 of 2)
light: not shown
notes: one Fab arm anti-BTN3A, one scFv anti-PD-1; not shown: CH2-CH3 (Fc); IgG1 CH1-hinge-CH2-CH3
B3: bsAb051 (bispecific antibody)
heavy (part 1 of 2): B1 heavy (part 1 of 2)
heavy (part 2 of 2): GGGGSGGGGSGGGGSGGGGSEVQLVESGGGLVQPGGSLRLSCAASGFTFSRYWMSWVRQAPGKGLEWVANIKQDGSEKYYVDSVKGRFTISRDNAKNSLYLQMNSLRAEDTAVYYCAREGGWFGELAFDYWGQGTLVTVSSGGGGSGGGGSGGGGSGGGGSEIVLTQSPGTLSLSPGERATLSCRASQRVSSSYLAWYQQKPGQAPRLLIYDASSRATGIPDRFSGSGSGTDFTLTISRLEPEDFAVYYCQQYGSLPWTFGQGTKVEIK
heavy: B3 heavy (part 2 of 2)
light: not shown
notes: one Fab arm anti-BTN3A, two scFv anti-PD-L1; not shown: IgG1 CH1-hinge-CH2-CH3; CH2-CH3 (Fc)
B4: bsAb020 (bispecific antibody)
heavy: DIQMTQSPSSLSASVGDRVTITCHASQNINVWLSWYQQKPGKAPKLLIYKASNLHTGVPSRFTGSGSGTDFTFTISSLQPEDIATYYCQQGQTYPYTFGQGTKLEIKGGGGSGGGGSGGGGSGGGGSQVQLVQSGAEVKKPGASVKLSCKASGYIFTRYYMYWVKQRPGQGLEWIGEINPNNGGTKFNEKFKNRATLTVDKSISTAYMELSRLRSDDTAVYYCSREDDYDGTPFAMDYWGQGTLVTVSSGGGGSGGGGSGGGGSGGGGSEVQLVESGGGLVQPGGSLRLSCAASGFTFSRYWMSWVRQAPGKGLEWVANIKQDGSEKYYVDSVKGRFTISRDNAKNSLYLQMNSLRAEDTAVYYCAREGGWFGELAFDYWGQGTLVTVSSASTKGPSVFPLAPSSKSTSGGTAALGCLVKDYFPEPVTVSWNSGALTSGVHTFPAVLQSSGLYSLSSVVTVPSSSLGTQTYICNVNHKPSNTKVDKRVEPKSCDKTHTCPPCPAPEFEGGPSVFLFPPKPKDTLMISRTPEVTCVVVDVSHEDPEVKFNWYVDGVEVHNAKTKPREEQYNSTYRVVSVLTVLHQDWLNGKEYKCKVSNKALPASIEKTISKAKGQPREPQVYTLPPSREEMTKNQVSLTCLVKGFYPSDIAVEWESNGQPENNYKTTPPVLDSDGSFFLYSKLTVDKSRWQQGNVFSCSVMHEALHNHYTQKSLSLSPG
light: EIVLTQSPGTLSLSPGERATLSCRASQRVSSSYLAWYQQKPGQAPRLLIYDASSRATGIPDRFSGSGSGTDFTLTISRLEPEDFAVYYCQQYGSLPWTFGQGTKVEIKRTVAAPSVFIFPPSDEQLKSGTASVVCLLNNFYPREAKVQWKVDNALQSGNSQESVTEQDSKDSTYSLSSTLTLSKADYEKHKVYACEVTHQGLSSPVTKSFNRGEC
notes: IgG anti-PD-L1, scFv anti-BTN3A
B5: bsAb024 (bispecific antibody)
heavy: QVQLVQSGAEVKKPGASVKLSCKASGYIFTRYYMYWVKQRPGQGLEWIGEINPNNGGTKFNEKFKNRATLTVDKSISTAYMELSRLRSDDTAVYYCSREDDYDGTPFAMDYWGQGTLVTVSSGGGGSGGGGSGGGGSGGGGSDIQMTQSPSSLSASVGDRVTITCHASQNINVWLSWYQQKPGKAPKLLIYKASNLHTGVPSRFTGSGSGTDFTFTISSLQPEDIATYYCQQGQTYPYTFGQGTKLEIKGGGGSGGGGSGGGGSGGGGSEVQLVESGGGLVQPGGSLRLSCAASGFTFSRYWMSWVRQAPGKGLEWVANIKQDGSEKYYVDSVKGRFTISRDNAKNSLYLQMNSLRAEDTAVYYCAREGGWFGELAFDYWGQGTLVTVSSASTKGPSVFPLAPSSKSTSGGTAALGCLVKDYFPEPVTVSWNSGALTSGVHTFPAVLQSSGLYSLSSVVTVPSSSLGTQTYICNVNHKPSNTKVDKRVEPKSCDKTHTCPPCPAPEFEGGPSVFLFPPKPKDTLMISRTPEVTCVVVDVSHEDPEVKFNWYVDGVEVHNAKTKPREEQYNSTYRVVSVLTVLHQDWLNGKEYKCKVSNKALPASIEKTISKAKGQPREPQVYTLPPSREEMTKNQVSLTCLVKGFYPSDIAVEWESNGQPENNYKTTPPVLDSDGSFFLYSKLTVDKSRWQQGNVFSCSVMHEALHNHYTQKSLSLSPG
light: B4 light
notes: as for B4
B6: bsAb036 (bispecific antibody)
heavy (part 1 of 2): EVQLVESGGGLVQPGGSLRLSCAASGFTFSRYWMSWVRQAPGKGLEWVANIKQDGSEKYYVDSVKGRFTISRDNAKNSLYLQMNSLRAEDTAVYYCAREGGWFGELAFDYWGQGTLVTVSS
heavy (part 2 of 2): GGGGSGGGGSGGGGSGGGGSQVQLVQSGAEVKKPGASVKLSCKASGYIFTRYYMYWVKQRPGQGLEWIGEINPNNGGTKFNEKFKNRATLTVDKSISTAYMELSRLRSDDTAVYYCSREDDYDGTPFAMDYWGQGTLVTVSSGGGGSGGGGSGGGGSGGGGSDIQMTQSPSSLSASVGDRVTITCHASQNINVWLSWYQQKPGKAPKLLIYKASNLHTGVPSRFTGSGSGTDFTFTISSLQPEDIATYYCQQGQTYPYTFGQGTKLEIK
heavy: B6 heavy (part 2 of 2)
light: B4 light
notes: one Fab arm anti-PD-L1, two scFv anti-BTN3A; not shown: IgG1 CH1-hinge-CH2-CH3; CH2-CH3 (Fc)

Tests used:
[1] = target: T1, recombinant human BTN3A1 (human, UniProt O00481 30-254); assay: SPR
T1 construct: Soluble form of the antigen used in SPR; also called rhBTN3A1; recombinant BTN3A1 protein
T1 sequence (O00481 30-254 limits assumed): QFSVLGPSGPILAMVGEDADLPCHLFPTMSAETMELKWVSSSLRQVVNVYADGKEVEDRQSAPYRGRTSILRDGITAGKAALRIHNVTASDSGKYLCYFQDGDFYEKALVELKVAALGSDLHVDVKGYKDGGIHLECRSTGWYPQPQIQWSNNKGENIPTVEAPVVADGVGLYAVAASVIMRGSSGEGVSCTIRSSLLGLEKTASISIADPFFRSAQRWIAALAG

[2] = target: T2, recombinant human PD-1 (human, UniProt Q15116 25-167, limits assumed); assay: SPR
T2 construct: Soluble antigen in SPR; also called rhPD-1
T2 sequence (Q15116 25-167 limits assumed): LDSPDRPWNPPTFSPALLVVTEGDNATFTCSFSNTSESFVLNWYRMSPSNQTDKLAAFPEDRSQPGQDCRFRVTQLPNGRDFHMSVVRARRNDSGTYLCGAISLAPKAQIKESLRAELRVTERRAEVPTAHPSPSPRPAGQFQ

[3] = target: T3, PD-1 at the surface of Jurkat-PD-1 cells (human, UniProt Q15116 25-288); assay: cell-based or functional assay
T3 sequence (Q15116 25-288): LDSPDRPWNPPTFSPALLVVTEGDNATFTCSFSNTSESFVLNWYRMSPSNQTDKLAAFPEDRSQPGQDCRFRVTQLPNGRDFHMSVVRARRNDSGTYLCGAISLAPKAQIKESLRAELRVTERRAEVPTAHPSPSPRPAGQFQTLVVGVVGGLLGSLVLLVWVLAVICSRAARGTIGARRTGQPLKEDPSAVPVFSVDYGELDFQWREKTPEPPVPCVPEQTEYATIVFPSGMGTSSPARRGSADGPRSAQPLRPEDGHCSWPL

[4] = target: T4, BTN3A1 at the surface of HEK-BTN3A1 cells (human, UniProt O00481 30-513); assay: flow cytometry, HEK-BTN3A1 cells
T4 construct: HEK 293T BTN2A/BTN3A KO cells transduced with a BTN3A1 expressing vector
T4 sequence (O00481 30-513 limits assumed): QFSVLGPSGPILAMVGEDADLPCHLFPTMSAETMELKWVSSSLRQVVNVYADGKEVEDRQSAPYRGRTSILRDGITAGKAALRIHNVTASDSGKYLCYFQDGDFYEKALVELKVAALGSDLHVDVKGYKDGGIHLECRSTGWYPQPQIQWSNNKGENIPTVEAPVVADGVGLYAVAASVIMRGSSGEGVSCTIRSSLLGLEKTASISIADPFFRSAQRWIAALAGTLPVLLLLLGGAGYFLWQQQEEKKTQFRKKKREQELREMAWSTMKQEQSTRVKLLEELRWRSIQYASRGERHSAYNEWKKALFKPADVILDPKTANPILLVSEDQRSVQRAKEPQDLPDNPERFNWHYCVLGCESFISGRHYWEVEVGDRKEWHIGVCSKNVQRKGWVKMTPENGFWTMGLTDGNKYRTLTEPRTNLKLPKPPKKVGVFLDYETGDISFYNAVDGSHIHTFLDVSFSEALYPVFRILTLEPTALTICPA

[5] = target: T3, PD-1 at the surface of Jurkat-PD-1 cells; assay: flow cytometry, Jurkat-PD-1 cells
[6] = target: T5, recombinant human PD-L1 (human, UniProt Q9NZQ7 19-239, limits assumed); assay: SPR
T5 construct: Soluble antigen in SPR; also called rhPD-L1
T5 sequence (Q9NZQ7 19-239 limits assumed): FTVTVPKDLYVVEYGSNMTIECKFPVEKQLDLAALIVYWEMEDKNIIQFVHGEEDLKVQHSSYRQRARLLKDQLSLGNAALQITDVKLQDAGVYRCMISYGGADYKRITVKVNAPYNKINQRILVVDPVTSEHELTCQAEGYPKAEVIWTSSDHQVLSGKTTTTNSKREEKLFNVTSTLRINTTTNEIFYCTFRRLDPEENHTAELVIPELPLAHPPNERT

[7] = target: T6, PD-L1 at the surface of transduced cells (UniProt Q9NZQ7 19-290, limits assumed); assay: flow cytometry, CHO-PD-L1 cells
T6 construct: whole, on cells; CHO-PD-L1 cells in flow cytometry, Raji-PD-L1 cells in the reporter assay; also called CHO-PD-L1; Raji-PD-L1
T6 sequence (Q9NZQ7 19-290 limits assumed): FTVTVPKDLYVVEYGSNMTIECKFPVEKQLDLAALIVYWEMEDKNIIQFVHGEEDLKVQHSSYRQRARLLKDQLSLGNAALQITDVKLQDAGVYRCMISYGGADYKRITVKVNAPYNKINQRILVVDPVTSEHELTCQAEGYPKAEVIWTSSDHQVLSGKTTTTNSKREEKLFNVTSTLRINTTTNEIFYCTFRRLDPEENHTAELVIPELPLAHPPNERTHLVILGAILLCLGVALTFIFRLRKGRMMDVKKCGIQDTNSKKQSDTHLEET

Binder | Kd [1] | Kd [2] | Jurkat-PD-1 activation at 10 nM [3] | Jurkat-PD-1 activation at 100 nM [3] | MFI at 10 nM [4] | MFI at 100 nM [4] | MFI at 10 nM [5] | MFI at 100 nM [5] | Kd [6] | MFI at 10 nM [7] | MFI at 100 nM [7]
B1 | 0.069 nM | 1.8 nM | 5.3 fold-change to medium | 7.6 fold-change to medium | 321000 MFI | 785000 MFI | 185000 MFI | 366000 MFI | – | – | –
B2 | 0.065 nM | 2 nM | 1.5 fold-change to medium | 3.4 fold-change to medium | 519000 MFI | 1e+06 MFI | – | 334000 MFI | – | – | –
B3 | 0.095 nM | – | – | – | 340000 MFI | 792000 MFI | – | – | 0.033 nM | 578000 MFI | 597000 MFI
B4 | 0.114 nM | – | – | – | 997000 MFI | 1.5e+06 MFI | – | – | 0.073 nM | 746000 MFI | 784000 MFI
B5 | 0.073 nM | – | – | – | – | 1.66e+06 MFI | – | – | 0.065 nM | 762000 MFI | 794000 MFI
B6 | 0.457 nM | – | – | – | 682000 MFI | 1.22e+06 MFI | – | – | 0.055 nM | 1.03e+06 MFI | 1.24e+06 MFI
